Source: publication PMC2877007

Biological target: Epidermal Growth Factor Receptor (EGFR) (human (endogenous in A431)) (UniProt P00533)
Test: parameter fitting of an ODE model (PottersWheel) and a stochastic simulation (SPS) to immunogold electron microscopy counts; estimated constants; adaptor immunogold label on plasma membrane sheets of A431 cells over a time course of EGF, 20 nM EGF in the model; docking rate multiplied by a scaling factor f and adjusted to match the data

- Kd: 2130 nM
- koff: 11.7 s⁻¹
- kon: 5.5e+06 M⁻¹ s⁻¹
Substance: Stat5 (from UniProt P42229 1-794) (natural protein)
